Columns and labels:
Assay in all cases: cell-based or functional assay
[1] = target: SARS-CoV-2 BA.1.1 spike protein (authentic virus) (SARS-CoV-2) (UniProt P0DTC2)
[2] = target: SARS-CoV-2 BA.5 spike protein (authentic virus) (SARS-CoV-2) (UniProt P0DTC2)
[3] = target: SARS-CoV-2 BA.2.12.1 spike protein (authentic virus) (SARS-CoV-2) (UniProt P0DTC2)
[4] = target: SARS-CoV-2 BA.1 spike protein (authentic virus) (SARS-CoV-2) (UniProt P0DTC2)
[5] = target: SARS-CoV-2 BA.2 spike protein (authentic virus) (SARS-CoV-2) (UniProt P0DTC2)
[6] = target: SARS-CoV-2 Alpha spike protein (authentic virus) (SARS-CoV-2) (UniProt P0DTC2)

## cilgavimab (AZD1061) (antibody)
[1]
  Authentic Virus Neutralization IC50: > 10 µg/mL
[2]
  Authentic Virus Neutralization IC50: 0.131 µg/mL
[3]
  Authentic Virus Neutralization IC50: 0.029 µg/mL
[4]
  Authentic Virus Neutralization IC50: 3.78 µg/mL
[5]
  Authentic Virus Neutralization IC50: 0.021 µg/mL
[6]
  Authentic Virus Neutralization IC50: 0.006 µg/mL
